Patent publication US20230135471A1, “UBIQUITIN VARIANTS WITH IMPROVED AFFINITY FOR 53BP1” (Integrated DNA Technologies, Inc., priority 2021, published 2023)

Each substance was assayed against 53BP1 fragment (a.a. 1221-1718) fused to an adenylate cyclase fragment (two-hybrid) (UniProt Q12888) (assay: cell-based or functional assay).

Substance	Experiment 1 Average Enrichment	Experiment 1 Rep 1 Enrichment	Experiment 1 Rep 2 Enrichment	Experiment 2 Average Enrichment	Experiment 2 Rep 1 Enrichment	Experiment 2 Rep 2 Enrichment	Percent GFP Positive Rep 1	Percent GFP Positive Rep 2	Percent GFP Positive Rep 3
i53 + Q31H two-hybrid fusion (designed binder)	0.19 log2	0.66 log2	-0.29 log2	0.11 log2	0.13 log2	0.09 log2	–	–	–
i53 + N25A two-hybrid fusion (designed binder)	0.3 log2	0.12 log2	0.49 log2	0.4 log2	0.39 log2	0.4 log2	–	–	–
i53 + M1Y two-hybrid fusion (designed binder)	2.36 log2	2.56 log2	2.16 log2	1 log2	1.18 log2	0.81 log2	–	–	–
i53 + R54K two-hybrid fusion (designed binder)	0.3 log2	0.07 log2	0.54 log2	-0.22 log2	-0.16 log2	-0.29 log2	–	–	–
i53 + P38I two-hybrid fusion (designed binder)	0.66 log2	0.4 log2	0.92 log2	0.64 log2	1.62 log2	-0.34 log2	–	–	–
i53 + K33V two-hybrid fusion (designed binder)	2.45 log2	2.71 log2	2.19 log2	1.75 log2	2.03 log2	1.46 log2	–	–	–
i53 + R54Q two-hybrid fusion (designed binder)	0.14 log2	-0.05 log2	0.32 log2	-0.02 log2	-0.04 log2	0 log2	–	–	–
i53 + E18Y two-hybrid fusion (designed binder)	0.72 log2	1.28 log2	0.17 log2	0.82 log2	1.2 log2	0.44 log2	–	–	–
i53 + T9V two-hybrid fusion (designed binder)	0.06 log2	0.32 log2	-0.21 log2	-0.15 log2	-0.36 log2	0.06 log2	–	–	–
i53 + S49V two-hybrid fusion (designed binder)	0.52 log2	0.8 log2	0.23 log2	0.49 log2	0.52 log2	0.45 log2	–	–	–
i53 + E16Y two-hybrid fusion (designed binder)	0.35 log2	0.23 log2	0.47 log2	-0.22 log2	-0.32 log2	-0.11 log2	–	–	–
i53 + R42C two-hybrid fusion (designed binder)	0.42 log2	0.37 log2	0.47 log2	0.28 log2	0.54 log2	0.01 log2	–	–	–
i53 + S20N two-hybrid fusion (designed binder)	0.31 log2	0 log2	0.61 log2	-0.25 log2	0.12 log2	-0.61 log2	–	–	–
i53 + D32E two-hybrid fusion (designed binder)	0.21 log2	0.41 log2	0 log2	-0.19 log2	-0.11 log2	-0.28 log2	–	–	–
i53 + D21E two-hybrid fusion (designed binder)	0.51 log2	0.2 log2	0.82 log2	-0.23 log2	-0.63 log2	0.16 log2	–	–	–
i53 + K33F two-hybrid fusion (designed binder)	1.77 log2	1.91 log2	1.62 log2	1.02 log2	1.16 log2	0.87 log2	–	–	–
i53 + M1R two-hybrid fusion (designed binder)	0.1 log2	-0.01 log2	0.22 log2	0.21 log2	0.11 log2	0.3 log2	–	–	–
i53 + R42H two-hybrid fusion (designed binder)	2.04 log2	2.18 log2	1.89 log2	1.03 log2	0.89 log2	1.16 log2	–	–	–

Substance	Experiment 1 Average Enrichment	Experiment 1 Rep 1 Enrichment	Experiment 1 Rep 2 Enrichment	Experiment 2 Average Enrichment	Experiment 2 Rep 1 Enrichment	Experiment 2 Rep 2 Enrichment	Percent GFP Positive Rep 1	Percent GFP Positive Rep 2	Percent GFP Positive Rep 3
i53 + M1S two-hybrid fusion (designed binder)	0.38 log2	0.55 log2	0.21 log2	0.34 log2	0.27 log2	0.41 log2	–	–	–
i53 + H68M two-hybrid fusion (designed binder)	2.28 log2	2.53 log2	2.04 log2	1.28 log2	0.99 log2	1.58 log2	28.6%	23.5%	28.3%
i53 + M1W two-hybrid fusion (designed binder)	1.83 log2	1.95 log2	1.71 log2	0.96 log2	0.99 log2	0.92 log2	–	–	–
i53 + N25K two-hybrid fusion (designed binder)	0.32 log2	0.11 log2	0.54 log2	0.21 log2	0.17 log2	0.24 log2	–	–	–
i53 + E18C two-hybrid fusion (designed binder)	0.23 log2	-0.06 log2	0.52 log2	-0.34 log2	-0.82 log2	0.14 log2	–	–	–
i53 + T7I two-hybrid fusion (designed binder)	1.66 log2	1.7 log2	1.63 log2	1.03 log2	1.04 log2	1.02 log2	–	–	–
i53 + K29R two-hybrid fusion (designed binder)	-0.01 log2	-0.07 log2	0.05 log2	0.28 log2	0.45 log2	0.1 log2	–	–	–
i53 + D52E two-hybrid fusion (designed binder)	0.28 log2	0.43 log2	0.14 log2	0.04 log2	-0.3 log2	0.37 log2	–	–	–
i53 + R74M two-hybrid fusion (designed binder)	1.04 log2	1.16 log2	0.91 log2	0.68 log2	0.68 log2	0.68 log2	–	–	–
i53 + T14N two-hybrid fusion (designed binder)	2.76 log2	2.84 log2	2.69 log2	1.44 log2	1.5 log2	1.37 log2	–	–	–
i53 + T7L two-hybrid fusion (designed binder)	0.61 log2	0.62 log2	0.61 log2	-0.19 log2	-0.07 log2	-0.31 log2	–	–	–
i53 + P38W two-hybrid fusion (designed binder)	0.6 log2	0.61 log2	0.6 log2	-0.59 log2	-0.87 log2	-0.32 log2	–	–	–
i53 + S49N two-hybrid fusion (designed binder)	0.04 log2	0.31 log2	-0.23 log2	-0.35 log2	-0.59 log2	-0.11 log2	–	–	–
i53 + N25G two-hybrid fusion (designed binder)	0.71 log2	1.06 log2	0.35 log2	0.38 log2	0.57 log2	0.19 log2	–	–	–
i53 + S65R two-hybrid fusion (designed binder)	1.14 log2	1.15 log2	1.13 log2	1.1 log2	1.48 log2	0.72 log2	–	–	–
i53 + I13P two-hybrid fusion (designed binder)	0.58 log2	2.15 log2	-0.99 log2	-4.23 log2	-3.84 log2	-4.62 log2	–	–	–
i53 + T7C two-hybrid fusion (designed binder)	1.2 log2	1.16 log2	1.23 log2	0.79 log2	0.9 log2	0.69 log2	–	–	–
i53 + K29H two-hybrid fusion (designed binder)	0.17 log2	0.02 log2	0.32 log2	-2.73 log2	-3.26 log2	-2.2 log2	–	–	–
